Data on one molecule can be found in paper PMC12494293, “Hexokinase 2 is an RNA-binding protein that regulates mRNA translation independently of glycolysis and induces melanoma cell proliferation”.

This data set addresses T1, HK2 Δ16 (UniProt P52789 17-917, del1-16).
T1 sequence: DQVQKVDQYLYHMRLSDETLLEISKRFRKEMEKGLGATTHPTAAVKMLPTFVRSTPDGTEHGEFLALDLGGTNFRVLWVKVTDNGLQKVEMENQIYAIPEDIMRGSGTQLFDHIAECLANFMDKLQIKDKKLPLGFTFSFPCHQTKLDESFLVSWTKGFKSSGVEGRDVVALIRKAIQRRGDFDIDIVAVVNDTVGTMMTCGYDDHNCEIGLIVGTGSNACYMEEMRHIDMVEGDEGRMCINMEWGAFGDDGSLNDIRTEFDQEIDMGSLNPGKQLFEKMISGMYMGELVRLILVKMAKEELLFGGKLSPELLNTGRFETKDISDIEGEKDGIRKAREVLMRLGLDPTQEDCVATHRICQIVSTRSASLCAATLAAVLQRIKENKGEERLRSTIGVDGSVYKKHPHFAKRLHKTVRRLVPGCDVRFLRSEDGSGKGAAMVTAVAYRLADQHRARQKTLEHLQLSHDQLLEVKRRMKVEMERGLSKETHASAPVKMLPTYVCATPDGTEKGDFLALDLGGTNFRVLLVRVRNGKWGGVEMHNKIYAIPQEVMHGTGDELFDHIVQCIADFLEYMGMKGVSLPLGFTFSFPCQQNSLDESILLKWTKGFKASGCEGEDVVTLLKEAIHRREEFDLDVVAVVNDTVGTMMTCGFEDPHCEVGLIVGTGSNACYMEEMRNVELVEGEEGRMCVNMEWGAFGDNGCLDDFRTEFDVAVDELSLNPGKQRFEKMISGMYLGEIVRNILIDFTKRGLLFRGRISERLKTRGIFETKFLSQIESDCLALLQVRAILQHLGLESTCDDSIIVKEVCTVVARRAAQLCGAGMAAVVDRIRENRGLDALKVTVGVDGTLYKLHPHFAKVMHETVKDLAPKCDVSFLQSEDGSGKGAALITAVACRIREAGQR
In words: competition; 5 µM HK2 Δ16, 25 nM ATTO700 SOX10 SL; almost complete competition; 10 mM Tris-HCl pH 7.5, 1 mM EDTA, 100 mM KCl, 0.1 mM DTT, 5% glycerol, 0.01 mg/mL BSA, 0.125 mg/mL yeast tRNA, 20°C; gel at 4°C. The following applies: protein: recombinant; (pET28b, Ni-NTA); hairpin.

B1: SOX10 SL (unlabeled) (structured_RNA)
RNA: AGGACGAGCCCCAGACUGGAGGAGAGGUCC
As to B1, the binding result is given as “binds”.
